Experimental data: the DeepSol protein solubility set

Experiment: soluble on expression in E. coli; label from the status in PepcDB or PDB records

Sequence	soluble on expression in E. coli
MALILTFLGKSGVARTKIAIAAAKLLASQGKRVLLAGLAEPVLPLLLEQTLTPDPQQIAPNLEVVQFQSSVLLERNWEEVKKLEAQYLRTPIIKEVYGQELVVLPGMDSALALNAIREYDASGKYDAIVYDGTGDAFTLRMLGLPESLSWYVRRFRQLFVNSDLGKTIAESPLIQPLISSFFNVNWTADNFAQPTNQVNNFLDKGKEALADPKRVAAFLVTTADPLEVVSVRYLWGSAQQIGLTIGGVIQVSSQTEGDLSAEFTPLEHHHHHH	not soluble
MALIQSCSGNTMTTDTIVAQATAPGRGGVGIIRVSGPLAAHVAQTVTGRTLRPRYAEYLPFTDEDGQQLDQGIALFFPNPHSFTGEDVLELQGHGGPVVMDMLIRRILQIKGVRPARPGEFSERAFLNDKMDLTQAEAIADLIDASSEQAAKSALQSLQGEFSKRIHTLVESLIHLRIYVEAAIDFPEEEIDFLADGKVSADLQTIIDNLAAVRREANQGAIMREGMKVVIAGRPNAGKSSLLNALSGKESAIVTDIAGTTRDVLREHIHIDGMPLHIIDTAGLRDASDAVEKIGIERAWEEIRQADRVLFMVDGTTTEATDPQDIWPDFVDKLPENIGITVIRNKADQTGEPLGICHVNQPTLIRLSAKTGQGVDALRQHLKECMGFSGNQEGGFMARRRHLDALERAAEHLAIGQQQLEGYMAGEILAEELRIAQQHLNEITGEFSSDDLLGRIFSSFCIGK	not soluble
MALKDRFDKIISYFDTDDVSENEVHEVQERTSVQRDSRAATAQEASQRSHMTNSAEEEMIGSRPRTYTYDPNRQERQRVQRDNAYQQATPRVQNKDSVRQQREQVTIALKYPRKYEDAQEIVDLLIVNECVLIDFQYMLDAQARRCLDYIDGASRVLYGSLQKVGSSMFLLTPANVMVDIEEMNIPKTGQETSFDFDMKRRLEHHHHHH	not soluble
MALLTKVTWNNIGMHQPQTNWYKGVWFPYSTPKYSFLLWLTIQNRLSTGDHIKAWNSGQQVTCTLCGNAEETRNLLFFSCHYTSEVWRTLTQRLLSNDYSRDWNRLLPLLCNTNMPTDLLFLFRYVFQASVYHIWRERNARRHGEISSPPNRLIKFIDKNVRNRINSIRDTGDHNYNACLQLWFSTRPLSSTHSL	soluble
MALLVTQPSEGLPPLAATSRSIYEAAYQLSQGTGPFAIDTERAGAYRYDDRAYLLQIRREGSGTVLIDPEANRRLVTSVLGKVINNQPWIIHAAATDLPCLSELGFYPSTIFDTELAGRLAGLPRVNLASMLEERLEVTLKKAHGAEDWSRRPLPHSWLVYAALDVEKLIPLAESMKLLLEAHGKLEWHKQECAHLINTSSHGLDTQRSWQDIKGVSRLTRPRQLVVAEALWELRDDEARMKNTSVSRLLPDKVLISVAQRPPRNSQAALRASEIPKQYRKRIARWMPTINDVLESDPRTWPHTPQFDENQLPSKYVWEKIHPESLDDFEEVKNSIVEKALLLNLPAENLMQPHSVKELCWQLRDVPRPIAQDDVIECLMRLEARPWQIDNSASVITDTLNKIEHAS	not soluble
MALNRMRQAKGAVASLLQNAYVHRDQVSLISFRGKQAQVLLPPSQSVDRAKRELDVLPTGGGTPLASALLTGWETAKQARAKGITQIMFVMITDGRGNIPLGAAYDPNATKASKEELEKEVEALALSIQADGIASIVVDTQMNYLSRGEAPKLAQKLGGRYFYLPNAKAEQIVEAALS	not soluble
MALPVTSSANQPTGTNNVAATKCKGCFCPGNPCQLCRLPPHTDDPIPENEPETCRLIREAVPPASFQPGENEYFANLDKATIQCIRSGDVIPNTRRVPGYPGRVYCKPGLPALGAH	not soluble
MALRDLSSSLSSSSSPELHVLAVDDSFVDRKVIERLLKISACKVTTVESGTRALQYLGLDGDNGSSGLKDLKVNLIVTDYSMPGLTGYELLKKIKESSALREIPVVIMSSENIQPRIEQCMIEGAEEFLLKPVKLADVKRLKELIMRGGEAEEGKTKKLSPKRILQNDIDSSPSSSSTSSSSSSHDVSSLDDDTPSSKRIKLESRG	not soluble
MALTATVRRAELQISDMDRGYYANHSLTLAQHPSETDERLMVRLLAFALFADDRLEFGRGLSNDDEPDLWRRDYTGDPDLWIDLGQPDESRVRKACNRSREAVVIGYGGQATETWWKKHANAMGRYRNLRVIELDSQATEALGALIQRGMRFDVIIQDGEVQMLADHGSVTLTPMVRQAPAE	soluble
MALTSDTQLNDIMRAAEAHKRIRGNLQKILKPGCSVREIIKYVEDSTRIMLHGEKNNGIGFPCGVSLNNVAAHFSLNPWNEDIILTKNDVLKIDFGTHSNGRIVDSAFSVSFDEKYTNLLLATKEATERGIKVIGIDMAVCEIGKEISEVFKSFEFEENGKMINIKPIWNLNGHSIDQYKIHAGISIPSINNGDYSRITPGFFAIETFASTGIGEIKDYGECSHFALASRPTTNKIYDKKNEEILNLIKKEFGTLPFSHQHLLYYTQNAKAAVQLLAARKFIDSYPPLVDIPKSYVAQFEHTLYITEKSKFNISKGDDYEGHHHHHH	soluble
MAMIKQILRLLFLLAMYELGKYVTEQVYIMMTANDDVEAPSDYVFRAEVSELEHHHHHH	not soluble
MAMVSEFLKQAWFIDNEEQEYIKTVKGSKGGPGSAVSPYPTFNPSSDVEALHKAITVKGVDEATIIEILTKRTNAQRQQIKAAYLQEKGKPLDEALKKALTGHLEEVALALLKTPAQFDADELRAAMKGLGTDEDTLNEILASRTNREIREINRVYKEELKRDLAKDITSDTSGDYQKALLSLAKGDRSEDLAINDDLADTDARALYEAGERRKGTDLNVFITILTTRSYPHLRRVFQKYSKYSKHDMNKVLDLELKGDIENCLTVVVKCATSKPMFFAEKLHQAMKGIGTRHKTLIRIMVSRSEIDMNDIKACYQKLYGISLCQAILDETKGDYEKILVALCGGD	soluble
MAMVSGRRSTLNPDAPLFIPAAVRQVEDFSPEWWQLVTTSTWYPDYWISQQQQGADGFYDNGENENGGGHIDVADLLPESFDFDDMEDFFDTDAAEFDQGFDGRMYYQAPSEFGFGKNGEMVKKSSGNRSPRSIVEPAKYAEKPAKWGNQRVAAAPRNIHQPR	soluble
MAMVVSSWRDPQDDVAGGNPGGPNPAAQAARGGGGGAGEQQQQAGSGAPHTPQTPGQPGAPATPGTAGDKGQGPPGSGQSQQHIECVVCGDKSSGKHYGQFTCEGCKSFFKRSVRRNLTYTCRANRNCPIDQHHRNQCQYCRLKKCLKVGMRREAVQRGRMPPTQPNPGQYALTNGDPLNGHCYLSGYISLLLRAEPYPTSRYGSQCMQPNNIMGIENICELAARLLFSAVEWARNIPFFPDLQITDQVSLLRLTWSELFVLNAAQCSMPLHVAPLLAAAGLHASPMSADRVVAFMDHIRIFQEQVEKLKALHVDSAEYSCLKAIVLFTSDACGLSDAAHIESLQEKSQCALEEYVRSQYPNQPSRFGKLLLRLPSLRTVSSSVIEQLFFVRLVGKTPIETLIRDMLLSGSSFNWPYMSIQCS	soluble
MANECRSLRNMETDGFQVVTEVVTHKLNHIPIFKGDFASLSPKVQRFVAEKAELMNPAGIYICDGSQKEYDDIVDKLVERGVLTPLKAYENNYLCRTDPRDVARVESKTWMVTKDKYDSVCHTPDGVRPIMGQWMSEEQFGVELDSRFPGCMAGRPMYVVPYSMGPIGGPLSKNGIELTDSPYVVLCMRTMTRMGTKVLEALGDNDFVRCIHSVGLPRPVKQKVINHWPCNPEKVMIAHRPKEREIWSFGSGYGGNSILGKKCFALRIACNIGRDEGWLAEHMLIMGVTNPEGEEKFIAAAFPSACGKTNLAMLTPTVPGWKVRVVGDDIAWMKFGADGRLYAINPEAGFFGVAPGTSHKTNAMAMESCRANTIFTNVAETADGEYFWEGLEKELKEAKGYTDEQLKHLEITNWLGERWHIGDEGKAAHPNSRFTAPAKQCPNIHPDWEAPQGVPIDAIVFGGRRPEGVPLVFESFSWEHGILVGALVKSETTAAAEFTGKNVMHDPMAMRPFMGYNYGKYLEHWIKLGKAPHKAPKIFHVNWFRETKDHKFLWPGFGDNIRVLDWILRRVAGGEEEIAIETAIGYVPKRGTINLDGLPRIDWNDLMSIPKDYWVEDVDESRHFLDTQVGSDLPQPIRDELDKLEKRVHAL	not soluble
MANKKIDHREEAIELLKQDAKRILQLIKVQMDNLTLPQCPAYEEVLDTQMYGLSREINFATRLGLIEPEEGKKLISTLEKELSALHELSMSKK	not soluble
MANKKNKVKFNICNVHYAPITVADEGKVSFGTPVAMPGAVSISMDPTGEPESFYADGIEYYVINNNQGYDGDLELAMIPETFRTDILKEEADSNNVLVENANSETGSFALLFEFDGDIRKIRHVLYNCSASRPTIESKTNEEDKEVQTETLTIKARPMADGYVKAKTGDSTTDTVYNNWYKSVYLPNSLEHHHHHH	soluble
MANLATVERYVSAAAQRGADMVVFPEATMQGFGTGRLDRVAERIDGPFATRICQLARELNIVIVVGMFSPADTHDGKQRINNVALIAHPDSVREYRKIHTYDAFGFKESDTVRPGNQLVTFPVGDVTCGIAVCYDVRFPQQFIDLARLGAEVIVLPASWADGEGKLEQWRTLTAARALDSTSYIVACDQAVAEDERAPGAPTGVGHSAVVTPDGRRIAEAGTGEELFMVNVNRDLVRRTREAIPVLADAGYNQNGE	not soluble
MANTGCLSPGAFLSKVPEFFQTANEKHITVRLTAKRLIEHDPVEGNLEFDSTNHPDYDVSKKASEISVSSRSDREYPLLIRMSYGSHDKKTKCSTVVKASELDQFWQEYSSVFKGGMQNLIKKKKKKSKNGTISKTGKKNKVAKKN	not soluble
MANVVAEGAYPYCRLTDQPLSVDEVLAAVSGPEQGGIVIFVGNVRDHNAGHDVTRLFYEAYPPMVIRTLMSIIGRCEDKAEGVRVAVAHRTGELQIGDAAVVIGASAPHRAEAFDAARMCIELLKQEVPIWKKEFSSTGAEWVGDRP	soluble
MAPAPRFSAEEQERLIICAAIKAIEESSLLDFSMSAIAKLAGLSMGSVYKFVQCKEDVLIALATRMYQERQSVFKKVLALPLTTPERIIATSLLDFSKVQMYNFDNQLESIVNTEAMMKRCSERWLTQMIACGERCQTMFQQFLQNAADSGELTSGSRDIEEINLGTWSLSVGYFQTVRLHQCWHNDLDENIDGINDEENEKNTLVLAADNAHIRTMKRLVNTYDWQQKISDDDIEKVCLHLADAALR	not soluble
MAPLKRRKVSAPTGNENTPRSTRSIRHKREDPRGKMKPLATSTRTSSVNKKKKNDDDYENFYSGENTITTMKPVVFPKKPVIFEHGYGIEDDIEDEIDDEELDDEEYEESGNGNEDEVEEEVGVEEQEIENNFAYKKVKSEISCSPFLKEHSVHSVLTNNRAKTGTIDSKAGRTAYRKQKLREGTCCSQSNEATGDSTDRSSTSAGFDVFQHLQNRAVQKTMIEQLESAVRNQDVMEMGNVVKKGLENGTLSEIQIEEFCKHTTRPNFSILQFVQALRQSTEDEKESIQIAQMMMFKMQDPKDGNYTALAANVHTLTSKISKQLNAGCIVKRTLTMNHTISQADGFPTCNLTDIYNSELLIGGDAVSQLSNFYMVALKTMLEPSYKIWAFTYRPSCVRRVDRHFQELPQKVTTAIIEVAFDIVGVYLPVELSYGSIDREHEFIKTLGEGAELEVQRRRDERITVFKNAVEALGKAMNNLRTYHFDIAKGALFNCNKPSYCEHHLKWGQVRKFREQHQRMETSPEEVIRFATGQRNEHDVSAAGRSVKDSTH	not soluble
